Results from patent US20110287000A1 (published 2011).
Numbering of substitutions follows the chain as printed.

T1: recombinant human CD127 extracellular domain (CD127 ECD) (human, UniProt P16871 21-219)
T1 construct: The assays only say 'recombinant human CD127 ECD'; also called IL-7Rα EDC; IL-7Rα
T1 chain: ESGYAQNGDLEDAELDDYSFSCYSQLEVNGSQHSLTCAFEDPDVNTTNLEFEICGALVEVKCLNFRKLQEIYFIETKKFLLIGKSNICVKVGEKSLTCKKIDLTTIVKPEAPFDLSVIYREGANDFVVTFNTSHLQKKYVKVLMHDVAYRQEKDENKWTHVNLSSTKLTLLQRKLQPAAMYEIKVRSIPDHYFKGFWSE

T2: recombinant human IL-7 (human, UniProt P13232 26-177)
T2 sequence (looked up): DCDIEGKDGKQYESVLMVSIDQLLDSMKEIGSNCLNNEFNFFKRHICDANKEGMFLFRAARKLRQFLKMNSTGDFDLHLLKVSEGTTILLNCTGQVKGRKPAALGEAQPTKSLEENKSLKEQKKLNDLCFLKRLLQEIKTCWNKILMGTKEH

B1: mAb 1A11 (murine anti-human CD127 monoclonal antibody) (antibody, mouse IgG1, V domains shown)
VH: EVQLQQSGPELLKPGASMKISCKASGYSFTGYTMNWVKQSHGKNLEWIGLINPYNGVTSYNQKFKGKATLTVAKSSSTAYMELLSLTSEDSAVYYCARGDGNYWYFDVWGAGTTVTVSS
VL: EIVLTQSPAITAASLGQKVTITCSASSSVTYMHWYQQKSGTSPKPWIYEISKLASGVPVRFSGSGSGTSYSLTISSMEAEDAAIYYCQEWNYPYTFGGGTKLEIK
notes: also called antibody 1A11
B2: mAb GR34 (reverse engineered clone of R34.34) (antibody, mouse IgG1, V domains shown)
VH: B1 VH with L12V, N55S, V57I, K63N, A73D, S85N
VL: B1 VL with V3I, T30S, V59A, E89Y
notes: also called antibody GR34
B3: human CD127 (IL-7Rα) expressed on cells (CD127-transfected CHO cells; PBMC / CD4+ T cells in functional assays) (receptor)
chain: ESGYAQNGDLEDAELDDYSFSCYSQLEVNGSQHSLTCAFEDPDVNTTNLEFEICGALVEVKCLNFRKLQEIYFIETKKFLLIGKSNICVKVGEKSLTCKKIDLTTIVKPEAPFDLSVIYREGANDFVVTFNTSHLQKKYVKVLMHDVAYRQEKDENKWTHVNLSSTKLTLLQRKLQPAAMYEIKVRSIPDHYFKGFWSEWSPSYYFRTPEINNSSGEMDPILLTISILSFFSVALLVILACVLWKKRIKPIVWPSLPDHKKTLEHLCKKPRKNLNVSFNPESFLDCQIHRVDDIQARDEVEGFLQDTFPQQLEESEKQRLGGDVQSPNCPSEDVVVTPESFGRDSSLTCLAGNVSACDAPILSSSRSLDCRESGKNGPHVYQDLLLSLGTTNSTLPPPFSLQSGILTLNPVAQGQPILTSLGSNQEEAYVTMSSFYQNQ
notes: The construct transfected into CHO is not described further; The same entry is used for native CD127 on human PBMC/T cells in functional rows; also called CHO-CD127; IL-7Rα expressed on CHO
B4: mAb 6C5 (murine anti-human CD127 monoclonal antibody) (antibody, mouse IgG1, V domains shown)
VH: EVKLLESGGGLVQPGGSLKLSCAASGFAFSAYWMSWVRQAPGKGLEWIGEINPDSSTINCTPSLKDKFIISRDNAKNTLSLQMNKVRSEDTALYYCARRLRPFWYFDVWGAGTTVTVSS
VL: DVLMTQTPLSLPVSLGDQASISCRSSQSIVQSNGNTYLEWYLQKPGQSPKLLIYKVSNRFSGVPDRFSGSGSGTDFTLKISRVEAEDLGVYYCFQGSHVPRTFGGGTKLEIK
notes: also called antibody 6C5
B5: mAb 9B7 (murine anti-human CD127 monoclonal antibody) (antibody, IgG1, V domains shown)
VH: QVQLQESGPGLVAPSQSLSITCTVSGFSLSRYNVHWVRQPPGKGLEWLGMIWDGGSTDYNSALKSRLSITKDNSKSQVFLKMNSLQTDDTAMYYCARNRYESGMDYWGQGTTVTVSS
VL: DIVMTQTPSSLTVTAGEKVTMSCKSSQSLLNSGNRKNYLTWYQQKPGQSPKLLIYWASTRESGVPDRFTGSGSGTDFTLIISSVQAEDLAVYYCQNDYTYPFTFGSGTKLEIKR
notes: Mouse hybridoma antibody; also called antibody 9B7; clone 9B7
B6: mAb 6A3 (murine anti-human CD127 monoclonal antibody) (antibody, mouse IgG1, V domains shown)
VH: DVQLQESGPGLVKPSQSLSLTCTVTGYSITTDYAWNWIRQFPGNKLEWMGYIFYSGSTTYTPSLKSRISITRDTSKNQFFLQLNSVTTEDTATYYCARGGYDVNYFDYWGQGTTLTVSS
VL: DIQMTQSPASQSASLGESVTITCLASQTIGAWLAWYQQKPGKSPQLLIYAATRLADGVPSRFSGSGSGTKFSFKISSLQAEDFVSYYCQQFFSTPWTFGGGTKLEIK
notes: also called antibody 6A3

Experiments:
[1] = biological target: recombinant human CD127 extracellular domain (CD127 ECD) (human) (UniProt P16871); assay: SPR (profile summary)
[2] = biological target: human CD127 (IL-7Rα) expressed on cells (CD127-transfected CHO cells; PBMC / CD4+ T cells in functional assays) (human) (UniProt P16871); assay: cell-based or functional assay
[3] = biological target: human CD127 (IL-7Rα) expressed on cells (CD127-transfected CHO cells; PBMC / CD4+ T cells in functional assays) (human) (UniProt P16871); assay: binding to CHO cells expressing IL-7Rα (flow cytometry)
[4] = biological target: recombinant human CD127 extracellular domain (CD127 ECD) (human) (UniProt P16871); assay: blocking of IL-7/IL-7Rα binding, competitor IL-7; format not given
[5] = biological target: recombinant human CD127 extracellular domain (CD127 ECD) (human) (UniProt P16871); assay: BIAcore blocking assay: inhibition ratio of CD127 ECD binding to immobilised IL-7 against antibody concentration
[6] = biological target: B3; assay: cell-based or functional assay
[7] = biological target: B3; assay: binding to CHO cells expressing IL-7Rα (flow cytometry)
[8] = biological target: T1, recombinant human CD127 extracellular …; assay: blocking of IL-7/IL-7Rα binding, competitor IL-7; format not given
[9] = biological target: T1, recombinant human CD127 extracellular …; assay: SPR, Biacore T100, 25° C.; antibody captured on rabbit anti-mouse IgG, CD127 ECD as analyte
Protocol: Antibody kinetics were assessed using a Biacore T100 system (GE Healthcare) with a reaction temperature of 25° C. Rabbit anti-mouse IgG antibody was immobilized on a CM5 biosensor chip with a final level of […] (response units) using the standard amine coupling kit and procedure. HBS-EP buffer pH 7.4 (consisting of 10 mM HEPES, 0.15 M sodium chloride, 3 mM EDTA and 0.005% v/v surfactant P20) was used as running buffer. Sensograms were run against a reference cell that was blank immobilized using EDC/NHS/ethanol amine. […] The sensor chip surfaces were regenerated with 10 mM Glycine-HCl, pH 1.7. Kd values were calculated using the Biacore evaluation software package.

recombinant human IL-7 = biological target: T2, recombinant human IL-7; assay: flow cytometry competition on CHO-CD127 cells: pre-incubation with IL-7, then staining with 6A3 (competitor read out: 6A3)
Protocol: After the incubation, anti-CD127 antibodies were added and the incubation continued for additional 30 min in 4% FCS in DPBS (FACS buffer). Afterward cells were washed in FACS buffer 3 times and stained with anti-mouse IgG ALEXA488 secondary antibody at 1:2000 dilution (Invitrogen Inc. #13-A11017).

[10] = biological target: T1, recombinant human CD127 extracellular …; assay: ELISA, recombinant human CD127 ECD coated on the plate, detection with HRP goat anti-mouse IgG
Source text: Anti-CD127 antibodies from the test hybridoma supernatants or purified material were titrated across the plate. The level of binding was detected by treatment with a horse-radish peroxidase (HRP) -conjugated goat-anti-mouse IgG antibody. The ELISA was developed using TMB substrate.

[11] = biological target: T1, recombinant human CD127 extracellular …; assay: SPR, Biacore T100; CD127 ECD immobilised on CM5, 9B7 hybridoma supernatant as analyte; table title says 37° C.
Protocol: HBS-EP buffer pH 7.4 (consisting of 10 mM HEPES, 0.15 M sodium chloride, 3 mM EDTA and 0.005% v/v surfactant P20) was used as running buffer. […] Kd values were calculated using the Biacore evaluation software package.

[12] = biological target: T1, recombinant human CD127 extracellular …; assay: SPR (profile summary; differs from Table 3)
[13] = biological target: T1, recombinant human CD127 extracellular …; assay: BIAcore blocking assay: inhibition ratio of CD127 ECD binding to immobilised IL-7 against antibody concentration
Protocol: HBS-EP buffer pH 7.4 (consisting of 10 mM HEPES, 0.15 M sodium chloride, 3 mM EDTA and 0.005% v/v surfactant P20) was used as running buffer. Sensograms were run against a reference cell that was blank immobilized using EDC/NHS/ethanol amine. […] After each injection the sensor chip surfaces were regenerated with 10 mM Glycine-HCl, pH 2.0. […] Inhibition ratio calculated as follows: Inhibition ratio=1−RU(sample)/RU(ECD).

[14] = biological target: T1, recombinant human CD127 extracellular …; assay: blocking of IL-7/IL-7Rα binding, competitor IL-7; format not stated in the sentence (BIAcore neutralising assay with immobilised IL-7 is described in 2.11)

**Q.** Which results are given for “R34.34 (Dendritics Inc. #DDX0700), commercial anti-human CD127 antibody”?
**A.** Kd [1]: 7.74 nM; IC50 of inhibition of pSTAT5 signalling [2]: 0.67 µg/ml; IL-17 production in IL-7 induced differentiated T cells (CCR6+ TH17), donors with inhibition [2]: 6 of 6 donors; EC50 [3]: 0.01 µg/mL; IC50 [4]: 1.38 µg/mL; IC50 (read off the curve) [5]: 3 µg/mL

**Q.** Which results are given for B1?
**A.** IC50 of inhibition of pSTAT5 signalling [6]: 0.088 µg/ml; EC50 [7]: 0.16 µg/mL; IC50 [8]: 1.79 µg/mL; Kd [9]: 3.44 nM; koff [9]: 0.000251 s⁻¹

**Q.** Which results are given for B2?
**A.** IC50 of inhibition of pSTAT5 signalling [6]: 0.22 µg/ml; EC50 [7]: 0.27 µg/mL; IC50 [8]: 2.29 µg/mL; Kd [9]: 15.3 nM; koff [9]: 0.000875 s⁻¹

**Q.** Does B3 bind (recombinant human IL-7)?
**A.** binds

**Q.** With B4 as the molecule, how does the “IC50 of inhibition of pSTAT5 signalling” value [6] read?
**A.** 50 µg/ml

**Q.** And the Kd [9]?
**A.** 24.4 nM

**Q.** What about the koff [9] of the same molecule?
**A.** 0.000436 s⁻¹

**Q.** And the kon [9]?
**A.** 17900 M⁻¹ s⁻¹

**Q.** What does the source list for B5?
**A.** EC50 (read off the curve) [10]: ~0.6 µg/mL; Kd [11]: 0.556 nM

**Q.** Which results are given for B6?
**A.** IC50 of inhibition of pSTAT5 signalling [6]: 0.099 µg/ml; Kd [12]: 7.99 nM; koff [12]: 0.000334 s⁻¹; EC50 [7]: 0.19 µg/mL; Kd [9]: 7.74 nM; koff [9]: 0.000146 s⁻¹; kon [9]: 18900 M⁻¹ s⁻¹; IC50 (read off the curve) [13]: ~2 µg/mL; IC50 [14]: 1.92 µg/mL
